Each block holds one molecule with its values, some of them ahead of it.
How the values were obtained:
[1] = target: T1, consolidated ligand NH2-PVpYENVG6>(PPAYPPPPVPKCONH2) (Homo sapiens, UniProt P00519, C100A/N120G/S121C); assay: Fluorescence-based titration binding assay; details: consolidated ligand binding both SH3 and SH2 domains; read-out: equilibration dissociation constant (Kd) for binding to the ligand
T1 construct: intein-CBD (on the SH3 segment, removed on thioester formation) (C, cleaved yes); GST-SH3-IEGR (upstream of the SH2 segment, removed by thrombin and Factor Xa) (N, cleaved yes); made in house; host or cells: E. coli (BL21 for SH3-intein-CBD, DH5-α for the GST fusion that gives SH2)
Excerpt: Under these conditions, no protein precipitation was observed and NMR analysis indicated the sample had adopted a native fold. A similar strategy was therefore used to prepare the complete [SH2-^15N]SH(32) construct for functional and structural analysis. The binding affinity of Abl-[SH2^15N]SH(32) for the consolidated ligand, NH2-PVpYENVG6>(PPAYPPPPVPKCONH2) (SEQ ID NOs: 5 and 6, respectively), which binds both the SH3 and the SH2 domains simultaneously (78) was studied using a fluorescence-based titration assay. (The C-terminal glycyl residue is linked to the N ε of lysyl in the second peptide segment). […] This affinity is characteristic of the dual domain construct.
Fluorescence Binding Assay: The equilibrium dissociation constants of the protein constructs for the consolidated ligand were determined using the previously describedfluorescence-based titration assay (78). The binding constant for the segment labeled construct was 300 (±100) nM. Experiments were performed on a Spex Fluorolog-3 spectrophotometer fitted with a Neslab temperature control unit.

poly(glu,tyr) [2] = assay: Csk kinase assay, transfer of 32P from γ-32P-ATP to poly(glu,tyr); assay type: biochemical
Experimental: In each of the two ligation reactions, the crude product mixture was nearly free of unligated material, although both preparations were contaminated with GroEL and DnaK. Although yields were not optimized, an estimated 0.5 mg of ligation product per 2.5 L bacterial cell culture was produced. […] Kinase assays were performed as described by Cole et al., J. Biol. Chem. 269, 30880 (1994) where transfer of ^32P from γ-^32P-ATP to poly(glu,tyr) was monitored. Briefly, poly(glu,tyr) reactions were carried out in 60 mM Tris-HCl, pH 7.4, 2 mM MnCl2, 10 mM dithiothreitol, 200 μg/mL BSA for 2 minutes at 30° C., quenched with EDTA, run out on 10% SDSPAGE and phosphopoly(glu,tyr) analyzed by scintillation counting. […] Further characterization of (Csk^PEP) and (Csk^pPEP) by electrospray mass spectrometry gave molecular masses in good agreement with the predicted values (FIG. 2C).

poly(glu,tyr) [3] = target: T2, poly(glu,tyr) (Homo sapiens, UniProt P41240); details: wild type Csk, reference (32), cited from earlier work
T2 construct: N-terminal methionine residue in the protein produced as an intein-CBD fusion was completely removed (no such cleavage is observed); Tyr unphosphorylated in Csk^PEP, phosphorylated in Csk^pPEP; made in house; host or cells: E. coli DH5α, co-expressed with GroES/GroEL

Kd [1]: 300 nM
B1: Abl-[SH2^15N]SH(32): Ligated human Abl SH3-SH2 domain pair with G120 C121 mutations, only the SH2 domain 15N labeled (SEQ ID NO: 1) (protein)
chain: MLFVALYDFVASGDNTLSITKGEKLRVLGYNHNGEWAEAQTKNGQGWVPSNYITPVGCLEKHSWYHGPVSRNAAEYLLSSGINGSFLVRESESSPGQRSISLRYEGRVYHYRINTASDGKLYVSSESRFNTLAELVHHHSTVADGLITTLHYPAPKRGIHRD
modifications: 15N label on SH2 domain

B2: wild type Csk: Full-length wild-type human C-terminal Src kinase, 50 kDa protein (protein, UniProt P41240 1-450, looked up)
chain: MSAIQAAWPSGTECIAKYNFHGTAEQDLPFCKGDVLTIVAVTKDPNWYKAKNKVGREGIIPANYVQKREGVKAGTKLSLMPWFHGKITREQAERLLYPPETGLFLVRESTNYPGDYTLCVSCDGKVEHYRIMYHASKLSIDEEVYFENLMQLVEHYTSDADGLCTRLIKPKVMEGTVAAQDEFYRSGWALNMKELKLLQTIGKGEFGDVMLGDYRGNKVAVKCIKNDATAQAFLAEASVMTQLRHSNLVQLLGVIVEEKGGLYIVTEYMAKGSLVDYLRSRGRSVLGGDCLLKFSLDVCEAMEYLEGNNFVHRDLAARNVLVSEDNVAKVSDFGLTKEASSTQDTGKLPVKWTAPEALREKKFSTKSDVWSFGILLWEIYSFGRVPYPRIPLKDVVPRVEKGYKMDAPDGCPPAVYEVMKNCWHLDAAMRPSFLQLREQLEHIKTHELHL
modifications: full-length
notes: Full-length wild-type human C-terminal Src kinase, 50 kDa protein
catalytic activity (kinase assay) (poly(glu,tyr) [2]): fully active
Km of poly(glu,tyr) (poly(glu,tyr) [3]): 48 ± 2 µg/mL
kcat (poly(glu,tyr) [3]): 0.667 ± 0.083 s⁻¹
Km (poly(glu,tyr) [3]; read-out: Km of ATP): 12 ± 1 µM
